Like-named read-outs stand apart in the source and are kept apart here.
How the values were obtained:
pepstatin A [1] = system: pepstatin A
[2] = biological target: soybean trypsin inhibitor (SBTI) (UniProt P01070)
pepstatin A [3] = biological target: pepstatin A; remark: listed apart in the source

Chain of UniProt P01070 (P01070 25-205): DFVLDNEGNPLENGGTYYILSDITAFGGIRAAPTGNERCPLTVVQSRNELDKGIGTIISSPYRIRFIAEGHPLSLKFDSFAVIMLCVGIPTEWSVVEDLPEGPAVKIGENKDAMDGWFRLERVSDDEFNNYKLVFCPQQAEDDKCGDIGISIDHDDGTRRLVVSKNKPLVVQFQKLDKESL

| Molecule | casein digestion by the SIP purified fractions at pH 5.5 (pepstatin A [3]) | also measured |
| --- | --- | --- |
| Trichoderma reesei pep4 |  | casein digestion by the SIP purified fractions at pH 5.5 (pepstatin A [1]): a large portion of the SIP protease activity was inhibited by pepstatin A |
| Trichoderma reesei slp2 |  | casein digestion by the SIP purified fractions at pH 5.5 [2]: The SBTI and chymostatin were able to inhibit the SLP2 protease in the purified sample |
| Trichoderma reesei pep5 (protein) MKFHAAALTLACLASSASAGVAQPRADEVESAEQGKTFSLEQIPNERYKGNIPAAYISALAKYSPTIPDKIKHAIEINPDLHRKFSKLINAGNMTGTAVASPPPGADAEYVLPVKIGTPPQTLPLNLDTGSSDLWVISTDTYPPQVQGQTRYNVSASTTAQRLIGESWVIRYGDGSSANGIVYKDRVQIGNTFFNQQAVESAVNISNEISDDSFSSGLLGAASSAANTVRPDRQTTYLENIKSQLARPVFTANLKKGKPGNYNFGYINGSEYIGPIQYAAINPSSPLWEVSVSGYRVGSNDTKYVPRVWNAIADTGTTLLLVPNDIVSAYYAQVKGSTFSNDVGMMLVPCAATLPDFAFGLGNYRGVIPGSYINYGRMNKTYCYGGIQSSEDAPFAVLGDIALKAQFVVFDMGNKVVGFANKNTNV | a large portion of the SIP protease activity was inhibited by pepstatin A |  |
| Trichoderma reesei gap1 (protein) TVQSNWGGAILEGSGFTAASATVNVPRGGGGSNAAGSAWVGIDGASCQTAILQTGFDWYGDGTYDAWYEWYPEFAADFSGIDIRQGDQIAMSVVATSLTGGSATLENLSTGQKVTQNFNRVTAGSLCETSAEFIIEDFEECNSNGSNCQPVPFASFSPAITFSSATATRSGRSVSLSGAEITEVIVNNQDLTRCSVSGSSTLTCSYV |  | casein digestion by the SIP purified fractions at pH 5.5 (LIP peptide): inhibited the protease activity slightly less compared to SIP inhibitor |
| Trichoderma reesei pep2 (protein) MQPSFGSFLVTVLSASMAAGSVIPSTNANPGSFEIKRSANKAFTGRNGPLALARTYAKYGVEVPKTLVDAIQLVKSIQLAKRDSATVTATPDHDDIEYLVPVKIGTPPQTLNLDFDTGSSDLWVFSSDVDPTSSQGHDIYTPSKSTSSKKLEGASWNITYGDRSSSSGDVYHDIVSVGNLTVKSQAVESARNVSAQFTQGNNDGLVGLAFSSINTVKPTPQKTWYDNIVGSLDSPVFVADLRHDTPGSYHFGSIPSEASKAFYAPIDNSKGFWQFSTSSNISGQFNAVADTGTTLLLASDDLVKAYYAKVQGARVNVFLGGYVFNCTTQLPDFTFTVGEGNITVPGTLINYSEAGNGQCFGGIQPSGGLPFAIFGDIALKAAYVIFDSGNKQVGWAQKK | a large portion of the SIP protease activity was inhibited by pepstatin A |  |
| Trichoderma reesei pep3 (protein) MEAILQAQAKFRLDRGLQKITAVRNKNYKRHGPKSYVYLLNRFGFEPTKPGPYFQQHRIHQRGLAHPDFKAAVGGRVTRQKVLAKKVKEDGTVDAGGSKTGEVDAEDQQNDSEYLCEVTIGTPGQKLMLDFDTGSSDLWVFSTELSKHLQENHAIFDPKKSSTFKPLKDQTWQISYGDGSSASGTCGSDTVTLGGLSIKNQTIELASKLAPQFAQGTGDGLLGLAWPQINTVQTDGRPTPANTPVANMIQQDDIPSDAQLFTAAFYSERDENAESFYTFGYIDQDLVSASGQEIAWTDVDNSQGFWMFPSTKTTINGKDISQEGNTAIADTGTTLALVSDEVCEALYKAIPGAKYDDNQQGYVFPINTDASSLPELKVSVGNTQFVIQPEDLAFAPADDSNWYGGVQSRGSNPFDILGDVFLKSVYAIFDQGNQRFGAVPKIQAKQNLQPPQ | a large portion of the SIP protease activity was inhibited by pepstatin A |  |

Reference: patent publication US20220290165
